Assay results reported in publication PMC11969672 (Nucleic Acids Research, 2025).

Assays:
[1] = target: T1, L3MBTL3–SAM (residues 705–773) (UniProt Q96JM7 705-773); assay: SEC
T1 sequence (looked up): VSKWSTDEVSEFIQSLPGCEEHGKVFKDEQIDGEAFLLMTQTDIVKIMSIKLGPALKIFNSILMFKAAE

[2] = target: the molecule itself; assay: negative-staining EM

B1: SAMD1–SAM (residues 459–523 with L495R mutation) (domain or fragment, human, UniProt Q6SPF0 459-523, looked up)
chain: PVEWTVMDVVEYFTEAGFPEQATAFQEQEIDGKSLLRMQRTDVLTGLSIRLGPALKIYEHHIKVL
[1]
  binding result: binds

B2: wild-type full-length SAMD1 (natural protein, human, UniProt Q6SPF0 1-538, looked up)
chain: MAGPPALPPPETAAAATTAAAASSSAASPHYQEWILDTIDSLRSRKARPDLERICRMVRRRHGPEPERTRAELEKLIQQRAVLRVSYKGSISYRNAARVQPPRRGATPPAPPRAPRGAPAAAAAAAPPPTPAPPPPPAPVAAAAPARAPRAAAAAATAPPSPGPAQPGPRAQRAAPLAAPPPAPAAPPAVAPPAGPRRAPPPAVAAREPPLPPPPQPPAPPQQQQPPPPQPQPPPEGGAVRAGGAARPVSLREVVRYLGGSGGAGGRLTRGRVQGLLEEEAAARGRLERTRLGALALPRGDRPGRAPPAASARPSRSKRGGEERVLEKEEEEDDDEDEDEEDDVSEGSEVPESDRPAGAQHHQLNGERGPQSAKERVKEWTPCGPHQGQDEGRGPAPGSGTRQVFSMAAMNKEGGTASVATGPDSPSPVPLPPGKPALPGADGTPFGCPPGRKEKPSDPVEWTVMDVVEYFTEAGFPEQATAFQEQEIDGKSLLLMQRTDVLTGLSIRLGPALKIYEHHIKVLQQGHFEDDDPDGFLG
[2]
  binding result: binds
